The assay has as its target T1, GFP-BC2-tag (Homo sapiens (beta-catenin-derived …, UniProt P35222)).
T1 construct: also called BC2 peptide
T1 chain: PDRKAAVSHWQQ
As to the kind of experiment: SPR; Biacore 8k; antigen (lysozyme or GFP-BC2-tag) amine-coupled to a CM5 chip, single-domain antibody flowed over at 30 µL/min; running buffer 137 mM NaCl, 2.7 mM KCl, 10 mM Na2HPO4, 1.8 mM KH2PO4 pH 7.5, room temperature; 1:1 Langmuir model. As to conditions: both partners purified. (In general: Surface plasmon resonance follows binding to a sensor surface in real time, without labels.)

The values below come from publication PMC11432006, “Functional Divergence in the Affinity and Stability of Non-Canonical Cysteines and Non-Canonical Disulfide Bonds: Insights from a VHH and VNAR Study” (International Journal of Molecular Sciences, 2024).

B1: BC2-Nb_(C55A_C110S) (VHH)
VHH: QVQLVESGGGLVQPGGSLTLSCTASGFTLDHYDIGWFRQAPGKEREGVSAINNSDDDTYYADSVKGRFTIFMNNAKDTVYLQMNSLKPEDTAIYYCAEARGSKRGRYEYDFWGQGTQVTVSS
notes: also called BC2-Nb mutant
Consider B1, for which the binding result was “no binding (tested: 5000 nM)”.
